Data: US9884122B2, “Small molecule drug conjugates” (Philochem AG, priority 2014, dated 2018)

What was measured:
[1] = system: subcutaneous SKRC52 tumors; assay: Analysis of tumor penetration by fluorescence microscopy; assay type: in vivo, mouse; conditions: 50 nmol intravenous; for tumor staining / penetration by fluorescence microscopy: Alexa546 probes
Description: After warming to −20° C., samples were cut into sections of 10 μm width and directly imaged on an Axioskop 2 fluorescence microscope (Zeiss).

[2] = biological target: T1, recombinant carbonic anhydrase IX (Homo sapiens, UniProt Q16790); assay: biochemical; assay type: binding
T1 construct: Recombinant CAIX was expressed as described previously; made in house
Description: The FP was measured on a Spectra Max Paradigm multimode plate reader (Molecular Devices). Experiments were performed in triplicate and data analyzed as described by Wang and co-workers.^[4]

[3] = Hydrolytic stability in PBS pH 7.4 at 37 C (MS/MS or HPLC); assay type: physicochemical; design: half-life: dose or concentration left out as unconfirmed; conditions: PBS pH 7.4, 37° C.; for half-life: read-out: t1/2 in PBS (converted)
Description: (§1) Targeted carbonate or carbamate 7a or 8a (30 μg) was dissolved in PBS pH 7.4 (1.5 mL) and incubated at 37° C. under gentle agitation. Aliquots (100 μL) were removed at different time points and diluted 1:1 with an internal standard of etodolac (TCI Chemicals) in MeOH (20 μg mL^−1). Small molecules were separated from salts using an Oasis WAX online sample preparation column (Waters) on an Alliance HT separation module (50 μL injections, 0.3 mL min^−1 0.1% aq. HCOOH for 3 min followed by 0.3 mL min^−1 MeCN for 7 min, Waters) and analyzed by mass spectrometry/mass spectrometry (MS/MS) on a Quattro API spectrometer (Waters) monitoring appropriate multiple reaction monitoring (MRM) transitions for 8a, 8b and etodolac as standard. Measurements were performed in triplicate, peaks integrated and the fraction of intact test compounds calculated as fraction of signal at time t divided by signal at time zero. Since signals due to etodolac were constant over time a further correction using the internal standard as reference was omitted. For stability measures in mouse serum, compounds were dissolved in freshly thawed mouse plasma (Invitrogen), aliquots taken at different time points and diluted with an equal volume of MeCN. After vigorous vortexting for 1 min, protein precipitate was spun down and the supernatant analyzed as above.
Targeted DM1 conjugate 9a (230 μg, 140 nmol) was dissolved in PBS pH 7.4 (1 mL) and incubated at 37° C. under gentle agitation. […] Water (600 μL) was added and aliquots of this mixture (50 μL) analyzed over a Syngergi RP Polar column (150×4.6 mm, 4 μm, Phenomenex) on an Alliance HT separation module (1 mL min^−1 5% MeCN in 0.1% aqueous TFA to 100% MeCN over 20 min, Waters). Analytes were detected using a Water 2996 photo array UV/VIS detector (Waters). Measurements were performed in triplicate, peaks integrated and the fraction of intact test compounds calculated as fraction of signal at time t divided by signal at time zero. […] After vigorous vortexting for 1 min, protein precipitate was spun down and the supernatant analyzed as above.

[4] = Stability in mouse plasma/serum at 37 C; assay type: in vitro ADME
Description: as §1
Targeted DM1 conjugate 9a (230 μg, 140 nmol) was dissolved in PBS pH 7.4 (1 mL) and incubated at 37° C. under gentle agitation. Aliquots (100 μL) were removed at different time points and diluted 1:1 with an internal standard solution of etodolac (TCI Chemicals) in MeCN (20 μg mL^−1). Water (600 μL) was added and aliquots of this mixture (50 μL) analyzed over a Syngergi RP Polar column (150×4.6 mm, 4 μm, Phenomenex) on an Alliance HT separation module (1 mL min^−1 5% MeCN in 0.1% aqueous TFA to 100% MeCN over 20 min, Waters). Analytes were detected using a Water 2996 photo array UV/VIS detector (Waters). Measurements were performed in triplicate, peaks integrated and the fraction of intact test compounds calculated as fraction of signal at time t divided by signal at time zero. Since signals due to etodolac were constant over time a further correction using the internal standard as reference was omitted. For stability measures in mouse serum, compounds were dissolved in freshly thawed mouse plasma (Invitrogen), aliquots taken at different time points and diluted with an equal volume of MeCN. After vigorous vortexting for 1 min, protein precipitate was spun down and the supernatant analyzed as above.

[5] = Estimation of the recommended therapy dose (tolerability); assay type: in vivo, mouse; conditions: for tolerated dose: nude mice, one mouse per regimen
Description: Estimation of the recommended therapy dose of a) 7a and b) 8a in nude mice was performed by studying different dosages using a schedule of five injections on five consecutive days compared to vehicle (5% DMSO in PBS pH 7.4). The dosage regimens were 0.4 nmol/day, 1.3 nmol/day, 4.0 nmol/day and 13.3 nmol/day. One mouse was used for each regimen.
Estimation of the recommended therapy dose and schedule of DM1 conjugate 9a was studied in SKRC52 tumor bearing nude mice. One mouse was used for testing each dosing scheme. Injections were given daily starting on day 0 in 5% DMSO in PBS pH 7.4 (150 μL). […] Since the animals in this study weighed on average 18% less than those used in the therapy study, a dose of 70 nmol per injection was used for the therapy experiment.

SKRC52 xenograft tumors = conditions: for tumor growth effect: 5 doses of 4 nmol on 5 consecutive days, 7a vs vehicle p<0.0001, vs 7b plus AAZ p<0.05
Description: SKRC52 xenograft tumors were implanted into balb/c nu/nu mice (Charles River) as described above. […] 5 doses of 4 nmol 7a,b, 8a,b or 7 doses of 70 nmol 9a,b each in PBS pH 7.4 (150 μL) containing 5% DMSO were given on 5 or 7 consecutive days and one group was treated with vehicle (5% DMSO in PBS pH 7.4). In the case of 7-9b an equimolar amount of AAZ was added to the injection solution to control for a possible antitumor activity of CAIX inhibitors. Sorafenib and sunitnib were administered at a standard dose of 30 mg/kg as described previously.^[5] Animals were weighed and tumor sizes measured daily and the tumor volume calculated according to the formula (long side)×(short side)^2×0.5. […] Prism 6 (GraphPad Software) was used for data analysis (regular two-way ANOVA with the Bonferroni test).

[6] = system: CAIX expressing SKRC52 cells; assay: In vitro cytotoxicity assay (MTS); assay type: cell-based, human; conditions: Condition (b): 1 h exposure, wash, then 72 h; concentrations up to 300 nM
Description: SKRC52 or A549 cells were seeded in 96-well plates in their appropriate culture medium (100 μL) at a density of 5000 cells per well and allowed to grow for 24 h. The medium was replaced with medium containing different concentrations of test substance (100 μL, 300 nM-15 pM in 1:3 dilution steps) and plates were either:
(a) incubated for 72 hours in the presence of the toxic substance, or
(b) incubated for 1 h under standard culture conditions, followed by removal of the medium containing the toxic substance, gently washing the cells fresh medium once and adding new medium (100 μL) and incubating for 72 h under culture conditions.
MTS cell viability dye (20 μL, Promega) was added, the plates were incubated for 1 h under culture conditions and the absorbance at 490 nm measured on a Spectra Max Paradigm multimode plate reader (Molecular Devices). Experiments were performed in triplicate and average cell viability calculated as measured background corrected absorbance divided by the absorbance of untreated control wells. EC50 values were determined by fitting data to the four-parameter logistic equation.

[7] = system: CAIX expressing SKRC52 cells; assay: Ligand binding analysis by flow cytometry, SKRC52; assay type: cell-based, human; conditions: 30 nM dye conjugate, 1 h at 0° C., washed
Description: Cells were detached from culture plates using a 50 mM EDTA solution in phosphate buffered saline (PBS) pH 7.4, counted and suspended to a final concentration of 1.5×10^6 cells mL^−1 in a 1% v/v solution of FCS in PBS pH 7.4. Aliquots of 3×10^5 cells (200 μL) were spun down and resuspended in solutions of IRDye750 (Licor) labeled ligands (30 nM) in a 1% v/v solution of FCS in PBS pH 7.4 (200 μL) and incubated on ice for 1 h. Cells were washed once with 200 μL 1% v/v solution of FCS in PBS pH 7.4 (200 μL), spun down, resuspended in 1% v/v solution of FCS in PBS pH 7.4 (300 μL) and analyzed on a FACS Canto flow cytometer (BD Bioscience). FlowJo Version 8.7 (Treestar) was used for data analysis and visualization. Results were as follows: • (1) Flow cytometry analysis of binding of ligand-IRDye750 conjugates 1c-6c (FIG. 1) to CAIX expressing SKRC52 cells.
Flow cytometry was performed as described above with monovalent and bivalent near infrared dye conjugates B3 and B4 and negative control conjugates lacking the ligand on CAIX-positive SKRC52 cells and CAIX-negative HEK cells^5.

[8] = system: subcutaneous SKRC52 tumors
Description: SKRC52 cells were grown to 80% confluence and detached with Trypsin-EDTA 0.05% (Invitrogen). Cells were washed with PBS pH 7.4 once, counted and resuspended in PBS to a final concentration of 6.7×10^7 cells mL^−1. Athymic balb/c nu/nu mice, 8-10 weeks of age (Charles River) were anesthetized with isofluorane and aliquots of 1×10^7 cells (150 μL of suspension) injected subcutaneously into their lower back.
Food and water was given ad libitum during that period.
Mice were subsequently sacrificed by cervical dislocation.

[9] = 7×70 nmol on 7 consecutive days
[10] = five injections on five consecutive days

With “N1-(2-(2-(2-aminoethoxy)ethoxy)ethyl)-N4-(5-sulfamoyl-1,3,4-thiadiazol-2-yl)succinamide Alexa546 conjugate [Compound 1b]” the “fluorescence in organs by microscopy” value [1] was “strong fluorescence due to 1b inside the tumor and the intestine” and the “tumor staining / penetration by fluorescence microscopy” value [1] was “staining of the tumor with 1b is initially highest in well-perfused areas”.

For `COc1cc2cc(c1Cl)N(C)C(=O)C[C@H](OC(=O)[C@H](C)N(C)C(=O)CCSSC[C@H](NC(=O)[C@H](CC(=O)O)NC(=O)[C@H](CCCNC(=N)N)NC(=O)[C@H](CC(=O)O)NC(=O)CCCCn1cc(CCCC(=O)Nc3nnc(S(N)(=O)=O)s3)nn1)C(=O)O)[C@@]1(C)O[C@H]1[C@H](C)[C@@H]1C[C@@](O)(NC(=O)O1)[C@H](OC)/C=C/C=C(\C)C2` [Compound 9a, Targeted DM1 Conjugate], the Kd [2] was 26.5 ± 2.5 nM, the “binding affinity for recombinant CAIX in vitro (in words)” value (shortened to “binding affinity for recombinant CAIX”) [2] was “retain binding affinity for recombinant CAIX in vitro” and the “decomposition in PBS (in words)” value ([3]; HPLC) was “No decomposition was observed”. The half-life ([4]; mouse serum, HPLC, read-out: t1/2 in mouse serum (converted)) was 20 h, the “tolerability of six doses of 60 nmol” value ([5]; daily injections, SKRC52 tumor bearing nude mice) was “tolerated with only minimal weight loss” and the anti-tumor effect (SKRC52 xenograft tumors; [9]) was “potent anti-tumor effect”. The “time after start of treatment at which tumors started regrowing” value (SKRC52 xenograft tumors; [9]) was 20 days and the “toxicity (body weight)” value (SKRC52 xenograft tumors; [9]) was “no detectable body weight loss”.

For `COc1cc2[nH]cc(C(=O)N3C[C@@H](CCl)c4c3cc(OC(=O)OCCSSC[C@H](NC(=O)[C@H](CC(=O)O)NC(=O)[C@H](CCCNC(=N)N)NC(=O)[C@H](CC(=O)O)NC(=O)CCCCn3cc(CCCC(=O)Nc5nnc(S(N)(=O)=O)s5)nn3)C(=O)O)c3ccccc43)c2cc1OCCN(C)C` [Compound 7a, AAZ Targeted CBI Carbonate], the Kd [2] was 7.3 ± 0.5 nM, the “binding affinity for recombinant CAIX” value [2] was “retain binding affinity for recombinant CAIX in vitro” and the EC50 [6] was 0.7 ± 0.1 nM. For the same compound, the half-life [3] was 15 h, the half-life ([4]; mouse plasma, MS/MS, errors <1 min, read-out: Half lives in mouse plasma) was 0.717 h and the half-life ([4]; mouse serum, read-out: t1/2 in mouse serum in vitro) was 0.717 h. The “tolerability at 13.3 nmol/day” value [5, 10] was “poorly tolerated”, the tolerated dose [5, 10] was “up to 4.0 nmol/day” and the tumor growth effect (SKRC52 xenograft tumors) was “statistically significant tumor growth retardation”.

For “tert-butyl (2-(2-(2-aminoethoxy)ethoxy)ethyl)carbamate Alexa546 conjugate [Compound 6b]”, the “tumor staining / penetration by fluorescence microscopy” value [1] was “cannot be detected inside the tumor”.

For `CC(C)(C)OC(=O)NCCOCCOCCNC(=O)CCCCc1ccc(C2=C(/C=C/C3=[N+](CCCCS(=O)(=O)O)c4ccc(S(=O)(=O)O)cc4C3(C)C)CCC/C2=C\C=C2\N(CCCCS(=O)(=O)O)c3ccc(S(=O)(=O)[O-])cc3C2(C)C)cc1` [Compound 6c, reference compound], the “binding to SKRC52 cells (fluorescence shift)” value [7] was “only shows little residual binding”, the “tumor targeting by near infrared imaging” value ([8]; 3 nmol intravenous, 1-12 h) was “does not reach the tumor” and the “accumulation in extracted tumor and organs (imaging)” value ([8]; mouse, in vivo) was “very little tumor or organ accumulation”.

For `COc1cc2[nH]cc(C(=O)N3C[C@@H](CCl)c4c3cc(OC(=O)N(C)CCSSC[C@H](NC(=O)[C@H](CC(=O)O)NC(=O)[C@H](CCCNC(=N)N)NC(=O)[C@H](CC(=O)O)NC(=O)CCCCn3cc(CCCC(=O)Nc5nnc(S(N)(=O)=O)s5)nn3)C(=O)O)c3ccccc43)c2cc1OCCN(C)C` [Compound 8a, AAZ Targeted CBI Carbamate], the Kd [2] was 40.3 ± 2.6 nM, the “binding affinity for recombinant CAIX” value [2] was “retain binding affinity for recombinant CAIX in vitro” and the half-life ([3]; buffer) was > 24 h. For the same compound, the half-life ([4]; plasma, MS/MS, errors <1 min, read-out: Half lives in mouse plasma) was 1.02 h, the half-life ([4]; serum, read-out: t1/2 in mouse serum in vitro) was 1.02 h and the tolerated dose [5, 10] was ≤ 13.3 nmol/day. The tumor growth effect (SKRC52 xenograft tumors) was “did not lead to any retardation in tumor growth”.
